Measurements taken from IntAct's records for PubMed 31515488.

B1: Mothers against decapentaplegic homolog 4 (Homo sapiens), Q13485 (parent)
chain: MDNMSITNTPTSNDACLSIVHSLMCHRQGGESETFAKRAIESLVKKLKEKKDELDSLITAITTNGAHPSKCVTIQRTLDGRLQVAGRKGFPHVIYARLWRWPDLHKNELKHVKYCQYAFDLKCDSVCVNPYHYERVVSPGIDLSGLTLQSNAPSSMMVKDEYVHDFEGQPSLSTEGHSIQTIQHPPSNRASTETYSTPALLAPSESNATSTANFPNIPVASTSQPASILGGSHSEGLLQIASGPQPGQQQNGFTGQPATYHHNSTTTWTGSRTAPYTPNLPHHQNGHLQHHPPMPPHPGHYWPVHNELAFQPPISNHPAPEYWCSIAYFEMDVQVGETFKVPSSCPIVTVDGYVDPSGGDRFCLGQLSNVHRTEAIERARLHIGKGVQLECKGEGDVWVRCLSDHAVFVQSYYLDREAGRAPGDAVHKIYPSAYIKVFDLRQCHRQMQQQAATAQAAAAAQAAAVAGNIPGPGSVGGIAPAISLSAAAGIGVDDLRRLCILRMSFVKGWGPDYPRQSIKETPCWIEIHLHRALQLLDEVLHTMPIADPQPLD

Variants of: B1
Details: with smad9_human SMAD9, O15198
Chain of smad9_human SMAD9, O15198 (O15198 whole entry): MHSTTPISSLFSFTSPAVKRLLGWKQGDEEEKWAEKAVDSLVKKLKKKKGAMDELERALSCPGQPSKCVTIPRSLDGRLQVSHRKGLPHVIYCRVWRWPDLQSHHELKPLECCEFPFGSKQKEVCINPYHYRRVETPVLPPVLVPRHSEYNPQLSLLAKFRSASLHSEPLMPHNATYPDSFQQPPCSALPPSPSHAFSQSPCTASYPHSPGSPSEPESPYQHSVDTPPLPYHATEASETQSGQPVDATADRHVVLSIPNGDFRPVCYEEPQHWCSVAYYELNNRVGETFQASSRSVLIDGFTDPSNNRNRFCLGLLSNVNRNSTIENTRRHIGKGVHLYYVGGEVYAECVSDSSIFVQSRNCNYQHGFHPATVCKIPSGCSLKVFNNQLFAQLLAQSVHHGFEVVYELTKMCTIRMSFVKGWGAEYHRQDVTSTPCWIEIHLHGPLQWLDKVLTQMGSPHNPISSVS

Row | effect of a mutation on the interaction | Variant
1 | disrupting interaction strength | L533R
2 | disrupting interaction strength | R361C

The next lines start with the variant.

Row | Variant | effect of a mutation on the interaction
3 | N13S | with no effect
4 | G352R | disrupting interaction strength
5 | E330K | disrupting interaction strength
6 | V350D | disrupting interaction strength
7 | C324R | disrupting interaction strength

Variants of: B1
Details: with smad3_human SMAD3, P84022
Chain of smad3_human SMAD3, P84022 (P84022 whole entry, looked up): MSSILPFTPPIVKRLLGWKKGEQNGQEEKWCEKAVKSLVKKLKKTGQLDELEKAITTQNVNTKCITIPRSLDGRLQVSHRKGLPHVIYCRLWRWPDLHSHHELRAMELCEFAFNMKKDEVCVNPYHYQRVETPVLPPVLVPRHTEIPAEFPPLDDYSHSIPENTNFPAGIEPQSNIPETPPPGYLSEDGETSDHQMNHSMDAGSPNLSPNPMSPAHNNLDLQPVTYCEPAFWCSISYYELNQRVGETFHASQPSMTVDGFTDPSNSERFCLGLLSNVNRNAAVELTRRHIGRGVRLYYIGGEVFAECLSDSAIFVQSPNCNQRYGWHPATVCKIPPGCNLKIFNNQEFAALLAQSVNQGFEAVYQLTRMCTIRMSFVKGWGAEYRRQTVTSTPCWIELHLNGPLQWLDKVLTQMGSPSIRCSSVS

Row | effect of a mutation on the interaction | Variant
8 | disrupting interaction strength | L533R
9 | with no effect | V407L
10 | disrupting interaction strength | R531W
11 | disrupting interaction strength | R361C
12 | disrupting interaction strength | V539G

More lines, now with the values behind:

Row | Variant | effect of a mutation on the interaction
13 | N13S | with no effect
14 | G352R | disrupting interaction strength
15 | E330K | disrupting interaction strength
16 | M294V | with no effect
17 | V350D | disrupting interaction strength
18 | C324R | disrupting interaction strength
19 | R189C | with no effect
20 | D355N | disrupting interaction strength

Variants of: B1
Details: with ews_human EWSR1, Q01844
Chain of ews_human EWSR1, Q01844 (Q01844 whole entry): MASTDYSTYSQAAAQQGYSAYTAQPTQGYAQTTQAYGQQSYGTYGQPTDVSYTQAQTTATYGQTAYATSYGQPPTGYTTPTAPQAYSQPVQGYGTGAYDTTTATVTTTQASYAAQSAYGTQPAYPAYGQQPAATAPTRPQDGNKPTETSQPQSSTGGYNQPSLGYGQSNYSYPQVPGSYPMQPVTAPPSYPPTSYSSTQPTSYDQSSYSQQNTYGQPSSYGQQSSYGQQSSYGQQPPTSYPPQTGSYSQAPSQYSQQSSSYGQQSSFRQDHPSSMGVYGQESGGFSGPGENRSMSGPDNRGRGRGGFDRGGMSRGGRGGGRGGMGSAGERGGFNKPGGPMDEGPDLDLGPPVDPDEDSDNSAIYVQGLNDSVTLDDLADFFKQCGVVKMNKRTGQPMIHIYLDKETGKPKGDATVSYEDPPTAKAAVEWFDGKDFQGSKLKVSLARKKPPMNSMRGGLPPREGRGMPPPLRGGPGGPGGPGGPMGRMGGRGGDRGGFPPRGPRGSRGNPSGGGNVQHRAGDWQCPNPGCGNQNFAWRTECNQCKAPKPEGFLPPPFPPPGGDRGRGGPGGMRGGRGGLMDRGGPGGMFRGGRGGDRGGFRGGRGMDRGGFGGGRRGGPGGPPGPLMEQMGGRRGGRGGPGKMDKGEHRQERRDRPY

Row | effect of a mutation on the interaction | Variant
21 | with no effect | R531W
22 | disrupting interaction strength | V539G

Further lines, the variant ahead of its results:

Row | Variant | effect of a mutation on the interaction
23 | R189C | with no effect
24 | D355N | with no effect
